Source: US20120114665A1 (Regeneron, published 2012)
Residue numbers refer to the chain shown, from its start. Values joined by “and” are separate entries in the source; they are usually repeats but may differ in a detail not shown here. Equal entries are not always repeated. Where two headings read alike, the source gives them in different places. Blank lines part the entries; values can stand above or below the binder they belong to.

Tests used:
human trRANKL-his (R&D) [1] = target: T1, human trRANKL-his (R&D) (human, UniProt O14788 136-317, limits assumed); test: SPR, trRANKL-his captured on anti-his, antibody 12.5-50 nM injected, 25°C
T1 construct: Bought (R&D); also called captured RANKL; not shown: his tag
T1 sequence: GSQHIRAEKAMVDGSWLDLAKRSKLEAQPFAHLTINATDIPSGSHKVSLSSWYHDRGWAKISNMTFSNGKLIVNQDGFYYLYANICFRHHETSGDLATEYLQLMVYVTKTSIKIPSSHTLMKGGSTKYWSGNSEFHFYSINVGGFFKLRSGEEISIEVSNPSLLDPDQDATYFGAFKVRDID
Source text: (§1) Briefly, human trRANKL-his (R&D) was first captured over an anti-his surface. […] The antigen and antibody binding and dissociation were monitored for 1 hr. KD is expressed in pM, T_{1/2} in hrs.

[2] = target: T2, penta-his-tagged monkey (Macaca fascicularis) RANKL (Macaca fascicularis, UniProt O14788 125-317 (human entry)); test: competition ELISA: 150 pM his-mfRANKL pre-mixed with antibody, free RANKL detected on hRANK-hFc plate
T2 construct: also called his-mfRANKL; mfRANKL; not shown: penta-his tag
T2 chain: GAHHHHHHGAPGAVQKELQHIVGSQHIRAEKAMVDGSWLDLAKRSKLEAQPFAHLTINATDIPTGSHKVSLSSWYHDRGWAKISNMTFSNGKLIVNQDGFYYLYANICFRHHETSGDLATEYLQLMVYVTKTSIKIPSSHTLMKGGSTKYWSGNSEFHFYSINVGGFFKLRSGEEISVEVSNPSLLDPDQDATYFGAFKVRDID
Description: (§2) Briefly, hRANK-hFc protein was coated on a 96-well plate in PBS buffer overnight at 4° C. at 2 μg/ml, and nonspecific binding was blocked with BSA, to form a hRANK-hFc surface.

[3] = target: T3, human RANKL (receptor activator of NF-κB ligand) (human, UniProt O14788 140-317, limits assumed); test: cell-based or functional assay
T3 sequence: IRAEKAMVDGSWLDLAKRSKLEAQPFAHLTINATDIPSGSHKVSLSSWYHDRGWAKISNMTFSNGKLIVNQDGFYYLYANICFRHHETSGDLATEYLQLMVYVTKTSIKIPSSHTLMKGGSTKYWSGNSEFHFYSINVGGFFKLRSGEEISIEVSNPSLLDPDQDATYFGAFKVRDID

penta-his-tagged hRANKL [4] = target: T4, penta-his-tagged hRANKL (human); test: competition ELISA: 150 pM his-hRANKL pre-mixed with antibody, free RANKL detected on hRANK-hFc plate
T4 construct: also called his-hRANKL; not shown: penta-his tag
T4 chain: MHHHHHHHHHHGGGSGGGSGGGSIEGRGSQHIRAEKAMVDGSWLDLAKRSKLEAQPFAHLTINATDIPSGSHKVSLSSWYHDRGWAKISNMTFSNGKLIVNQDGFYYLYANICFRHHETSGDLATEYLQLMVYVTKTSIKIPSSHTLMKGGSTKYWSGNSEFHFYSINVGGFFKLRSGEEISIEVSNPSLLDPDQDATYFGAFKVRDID
Description: as §2

human trRANKL-his (R&D) [5] = target: T1, human trRANKL-his (R&D); test: SPR, trRANKL-his captured on anti-his, antibody 12.5-50 nM injected, 37°C
Source text: as §1

[6] = target: T5, hRANKL captured on an anti-penta-his antibody surface (human, UniProt O14788 136-317); test: SPR (BIACORE), hRANKL captured on anti-penta-his, antibody 25-100 nM injected, 37°C
T5 construct: also called captured hRANKL surface; not shown: his tag implied by capture on anti-penta-his
T5 sequence: T1 sequence

[7] = target: T5, hRANKL captured on an anti-penta-his …; test: SPR (BIACORE), hRANKL captured on anti-penta-his, antibody 25-100 nM injected, 25°C
[8] = target: T3, human RANKL (receptor activator of …); test: SPR (BIACORE), purified antibody, 25°C
[9] = target: T3, human RANKL (receptor activator of …); test: SPR (BIACORE), purified antibody, 37°C
[10] = target: T2, penta-his-tagged monkey (Macaca …); test: competition ELISA: 150 pM his-mfRANKL pre-mixed with antibody, free RANKL detected on hRANK-hFc plate
Description: as §2

penta-his-tagged hRANKL [11] = target: T4, penta-his-tagged hRANKL; test: competition ELISA: 150 pM his-hRANKL pre-mixed with antibody, free RANKL detected on hRANK-hFc plate
Description: as §2

[12] = target: T3, human RANKL (receptor activator of …); test: cell-based or functional assay; remark: listed apart in the source

B1: H4H008P2 (antibody, V domains shown)
VH: EVQLLESGGGLLQPGGSLRLSCAASGFTFSGFGMSWVRQAPGRGLEWVSVISYDGRNKYYADSVKGRFTSSRDNSKNTLYLQMNSLRAEDTAVYYCAKSLSGTYWGYGMDVWGRGTLVTVSS
VL: EIVLTQSPATLSLSPGERATLSCRASQSIRSWLAWYQQKPGQAPRLLIYKASNRATGIPARFSGSGSGTDFTLTISSLEPEDFGVYYCQQYNSYLWTFGGGTKVEIKR
Kd (human trRANKL-his (R&D) [1]): 0.0254 nM
T1/2 (human trRANKL-his (R&D) [1]): 2 h
IC50 [2]: 1.8 nM
IC50, hRANKL-inducible luciferase activity in HK293/RANK/NFκB-luc-eGFP cells [3]: 0.015 nM
IC50 (penta-his-tagged hRANKL [4]): 0.0569 nM
Kd (human trRANKL-his (R&D) [5]): 0.245 nM
T1/2 (human trRANKL-his (R&D) [5]): 0.2 h

B2: H4H010P2 (antibody, V domains shown)
VH: QVQLVQSGGGVVQPGRSLRLSCAASGFTFSGYGMHWVRQAPGKGLDWVTVISYDGSNKHYADSVKGRFTISRDNSKNTLYLQMSSLGPEDTAVYYCAKSLSGTYWGYGMDVWGQGTTVTVSS
VL: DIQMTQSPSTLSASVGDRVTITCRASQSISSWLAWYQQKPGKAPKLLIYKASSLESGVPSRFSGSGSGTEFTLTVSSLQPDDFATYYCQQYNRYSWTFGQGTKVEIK
Kd (human trRANKL-his (R&D) [1]): 0.134 nM
T1/2 (human trRANKL-his (R&D) [1]): 1 h
IC50 [2]: 0.353 nM
IC50, hRANKL-inducible luciferase activity in HK293/RANK/NFκB-luc-eGFP cells [3]: 0.0187 nM
IC50 (penta-his-tagged hRANKL [4]): 0.0519 nM
Kd (human trRANKL-his (R&D) [5]): 0.848 nM
T1/2 (human trRANKL-his (R&D) [5]): 0.15 h

Next, values leading:

Kd [6]: 0.0399 nM
T1/2 [6]: 1 h
Kd [7]: 0.0119 nM
T1/2 [7]: 6 h
Kd [8]: 0.007 nM
Kd [9]: 0.163 nM
IC50 [10]: 0.16 nM
Kd (human trRANKL-his (R&D) [1]): 0.0119 nM
T1/2 (human trRANKL-his (R&D) [1]): 6 h
IC50 (penta-his-tagged hRANKL [11]): 0.02 nM
IC50 [2]: 0.29 nM
IC50, hRANKL-inducible luciferase activity in HK293/RANK/NFκB-luc-eGFP cells [12]: 0.02 nM
IC50, hRANKL-inducible luciferase activity in HK293/RANK/NFκB-luc-eGFP cells [3]: 0.0108 nM
IC50 (penta-his-tagged hRANKL [4]): 0.09 nM
Kd (human trRANKL-his (R&D) [5]): 0.0395 nM
T1/2 (human trRANKL-his (R&D) [5]): 1 h
B3: H4H008G (antibody, V domains shown)
VH: QVQLVESGGGVVQPGRSLRLSCAASGFTFSGFGMHWVRQAPGKGLEWVAVISYDGRNKYYADSVKGRFTISRDNSKNTLYLQMNSLRAEDTAVYYCAKSLSGTYWGYGMDVWGQGTTVTVS
VL: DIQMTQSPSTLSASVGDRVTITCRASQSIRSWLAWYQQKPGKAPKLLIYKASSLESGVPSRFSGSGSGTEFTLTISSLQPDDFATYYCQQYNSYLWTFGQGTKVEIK
notes: Purified antibody from clone 2G10

Kd [6]: 0.881 nM
T1/2 [6]: 0.13 h
Kd [7]: 0.376 nM
T1/2 [7]: 1 h
Kd [8]: 0.173 nM
Kd [9]: 0.0248 nM
IC50 [10]: 0.345 nM
IC50 (penta-his-tagged hRANKL [11]): 0.06 nM
IC50, hRANKL-inducible luciferase activity in HK293/RANK/NFκB-luc-eGFP cells [12]: 0.045 nM and 0.084 nM
B4: H4H009P (antibody, V domains shown)
VH: B3 VH with F32Y, M34I, G42D, R56T, A61G, S75T, A88T
VL: DIQMTQSPSTLSASVGDRVTITCRASQNIGNWLAWYQQKPGKAPKLLIYKASSLQNGVPSRFSGSGSGTEFTLTISSLQPDDFATYYCQRYNSYSWTFGQGTKVEIK
notes: Purified antibody from clone 2H10
